Consider one substance from patent US20190203192A1.

The experiment deals with VEGF (UniProt P15692). Nature of the experiment: SPR (BIAcore). Particulars: Fab. (In SPR one partner is held on a chip, and binding of the other changes the refractive index at the surface.)
Chain of VEGF (P15692 other isoform, or with tags, fused parts or gaps): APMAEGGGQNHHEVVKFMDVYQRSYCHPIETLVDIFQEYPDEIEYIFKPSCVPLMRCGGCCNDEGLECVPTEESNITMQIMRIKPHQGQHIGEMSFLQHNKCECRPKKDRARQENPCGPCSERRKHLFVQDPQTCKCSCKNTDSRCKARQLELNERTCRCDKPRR

A word on the Kd: it is the equilibrium constant for the complex coming apart. Read a high Kd as lower affinity. Substance anti-VEGF Fab (Lucentics) control registered a Kd of 0.103 nM.
